We go through 95 variants from the supplement of paper PMC10567573.

Sequences and labels used below:
B1: ANKRD17 (parent)
chain: EMVRFLLEAGADQEHKTDEMHTAL
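Note: lentivirally expressed fusions sorted by FACS into six bins by GFP to DsRed ratio, PSI derived from sequencing read proportions per bin multiplied by bin number.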

Variants of B1 are the subject of the series. The series can be described thus: protein stability index of a GFP-peptide fusion (GPS, HEK-293T) (PSI 1-6); higher = more stable. The following applies: c terminus: a fixed tail appended.
As to EMVRFLLEAGADQEHKTDAMHTAL [E19A], the protein stability index was determined as 2.33. The figure for EMVRFLLEAGADQEHKTDWMHTAL [E19W] is 1.43; for EMVRFLLEAGADQEHKTDIMHTAL [E19I] it is 1.63; for EMVRFLLEAGADQEHKTDDMHTAL [E19D] it is 2.28.

As to EMVRFLLEAGADQEHKTDYMHTAL [E19Y], the protein stability index turned out to be 1.6. Consider EMVRFLLEAGADQEHKTDFMHTAL [E19F], for which the protein stability index was determined as 1.97. To EMVRFLLEAGADQEHKTDQMHTAL [E19Q] belongs 1.92. To EMVRFLLEAGADQEHKTDTMHTAL [E19T] belongs 2.53; to EMVRFLLEAGADQEHKTDRMHTAL [E19R], 2.7. Turning to EMVRFLLEAGADQEHKTDLMHTAL [E19L], the protein stability index was 2.29. For the variant EMVRFLLEAGADQEHKTDGMHTAL [E19G], the protein stability index was 1.71. For EMVRFLLEAGADQEHKTDKMHTAL [E19K], the protein stability index was determined as 1.91. Take EMVRFLLEAGADQEHKTDSMHTAL [E19S]: the protein stability index came out at 2.16.

For the variant EMVRFLLEAGADQEHKTDMMHTAL [E19M], the protein stability index came out at 2.01. Consider EMVRFLLEAGADQEHKTDHMHTAL [E19H], for which the protein stability index was determined as 2.22. Turning to EMVRFLLEAGADQEHKTDVMHTAL [E19V], the protein stability index worked out at 1.79.

For the variant EMVRFLLEAGADQEHKTDPMHTAL [E19P], the protein stability index is 1.87. Regarding EMVRFLLEAGADQEHKTDNMHTAL [E19N], the protein stability index was 3.27. Turning to EMVRFLLEAGADQEHKTDCMHTAL [E19C], the protein stability index stood at 1.54. To EMVRFLLEAGADQEHKTDEMLTAL [H21L] belongs 2.66; to EMVRFLLEAGADQEHKTDEMKTAL [H21K], 3.11. The figure for EMVRFLLEAGADQEHKTDEMFTAL [H21F] is 2.19; for EMVRFLLEAGADQEHKTDEMPTAL [H21P] it is 2.54. As for EMVRFLLEAGADQEHKTDEMWTAL [H21W], the protein stability index stood at 1.92. For the variant EMVRFLLEAGADQEHKTDEMMTAL [H21M], the protein stability index turned out to be 3.25. EMVRFLLEAGADQEHKTDEMNTAL [H21N]: the protein stability index was found to be 3.05. As for EMVRFLLEAGADQEHKTDEMVTAL [H21V], the protein stability index came to 2.34.

On to EMVRFLLEAGADQEHKTDEMQTAL [H21Q], for which the protein stability index amounted to 3.55. As to EMVRFLLEAGADQEHKTDEMTTAL [H21T], the protein stability index is 2.81. On to EMVRFLLEAGADQEHKTDEMDTAL [H21D], for which the protein stability index was found to be 2.96.

In the case of EMVRFLLEAGADQEHKTDEMATAL [H21A], the protein stability index came to 3.24. As to EMVRFLLEAGADQEHKTDEMRTAL [H21R], the protein stability index amounted to 3.36. The figure for EMVRFLLEAGADQEHKTDEMETAL [H21E] is 2.89. As to EMVRFLLEAGADQEHKTDEMYTAL [H21Y], the protein stability index came out at 2.41. Turning to EMVRFLLEAGADQEHKTDEMGTAL [H21G], the protein stability index was determined as 3.1.

With EMVRFLLEAGADQEHKTDEMITAL [H21I], the protein stability index stood at 2.55. For EMVRFLLEAGADQEHKTDEMCTAL [H21C], the protein stability index was 3.21. EMVRFLLEAGADQEHKTDEMSTAL [H21S]: the protein stability index came out at 3.4. Consider EMVRFLLEAGADQEHKTDEMHTAK [L24K], for which the protein stability index is 3.3. The figure for EMVRFLLEAGADQEHKTDEMHTAT [L24T] is 3.05; for EMVRFLLEAGADQEHKTDEMHTAH [L24H] it is 2.78. With EMVRFLLEAGADQEHKTDEMHTAD [L24D], the protein stability index was 4.06. The figure for EMVRFLLEAGADQEHKTDEMHTAC [L24C] is 2.75; for EMVRFLLEAGADQEHKTDEMHTAF [L24F] it is 2.34. To EMVRFLLEAGADQEHKTDEMHTAE [L24E] belongs 3.79. To EMVRFLLEAGADQEHKTDEMHTAM [L24M] belongs 2.37; to EMVRFLLEAGADQEHKTDEMHTAY [L24Y], 2.95. Take EMVRFLLEAGADQEHKTDEMHTAR [L24R]: the protein stability index was found to be 2.72. On to EMVRFLLEAGADQEHKTDEMHTAN [L24N], for which the protein stability index was 3.03.

EMVRFLLEAGADQEHKTDEMHTAP [L24P]: the protein stability index was determined as 2.4.

Turning to EMVRFLLEAGADQEHKTDEMHTAQ [L24Q], the protein stability index came to 3.14. The figure for EMVRFLLEAGADQEHKTDEMHTAG [L24G] is 3; for EMVRFLLEAGADQEHKTDEMHTAI [L24I] it is 2.31. Regarding EMVRFLLEAGADQEHKTDEMHTAS [L24S], the protein stability index came to 2.99. The figure for EMVRFLLEAGADQEHKTDEMHTAW [L24W] is 2.68. With EMVRFLLEAGADQEHKTDEMHTAA [L24A], the protein stability index worked out at 2.75. EMVRFLLEAGADQEHKTDEMHTAV [L24V]: the protein stability index stood at 2.62. To EMVRFLLEAGADQEHKTDEMHTNL [A23N] belongs 3.01. Turning to EMVRFLLEAGADQEHKTDEMHTLL [A23L], the protein stability index is 2.43. On to EMVRFLLEAGADQEHKTDEMHTYL [A23Y], for which the protein stability index was 3.03.

As for EMVRFLLEAGADQEHKTDEMHTHL [A23H], the protein stability index worked out at 2.69.

Turning to EMVRFLLEAGADQEHKTDEMHTCL [A23C], the protein stability index came out at 2.49. For EMVRFLLEAGADQEHKTDEMHTTL [A23T], the protein stability index was 2.74. For EMVRFLLEAGADQEHKTDEMHTVL [A23V], the protein stability index amounted to 2.6. In the case of EMVRFLLEAGADQEHKTDEMHTFL [A23F], the protein stability index turned out to be 2.18. On to EMVRFLLEAGADQEHKTDEMHTDL [A23D], for which the protein stability index was 3.06.

Take EMVRFLLEAGADQEHKTDEMHTSL [A23S]: the protein stability index was 3.05. To EMVRFLLEAGADQEHKTDEMHTGL [A23G] belongs 2.72; to EMVRFLLEAGADQEHKTDEMHTEL [A23E], 2.91; to EMVRFLLEAGADQEHKTDEMHTKL [A23K], 2.76. As for EMVRFLLEAGADQEHKTDEMHTIL [A23I], the protein stability index came out at 2.97. For the variant EMVRFLLEAGADQEHKTDEMHTQL [A23Q], the protein stability index amounted to 3.69. The figure for EMVRFLLEAGADQEHKTDEMHTML [A23M] is 2.7. Consider EMVRFLLEAGADQEHKTDEMHTRL [A23R], for which the protein stability index is 2.96. For the variant EMVRFLLEAGADQEHKTDEMHTWL [A23W], the protein stability index was found to be 3.12.

Consider EMVRFLLEAGADQEHKTDEMHTPL [A23P], for which the protein stability index was 3.12. To EMVRFLLEAGADQEHKTDEMHYAL [T22Y] belongs 1.93; to EMVRFLLEAGADQEHKTDEMHNAL [T22N], 2.86; to EMVRFLLEAGADQEHKTDEMHAAL [T22A], 2.77.

Regarding EMVRFLLEAGADQEHKTDEMHVAL [T22V], the protein stability index stood at 2.46. With EMVRFLLEAGADQEHKTDEMHCAL [T22C], the protein stability index was found to be 2.2. With EMVRFLLEAGADQEHKTDEMHGAL [T22G], the protein stability index came to 3.23. For the variant EMVRFLLEAGADQEHKTDEMHFAL [T22F], the protein stability index came out at 1.97. EMVRFLLEAGADQEHKTDEMHDAL [T22D]: the protein stability index is 2.75. With EMVRFLLEAGADQEHKTDEMHRAL [T22R], the protein stability index was 2.5. Regarding EMVRFLLEAGADQEHKTDEMHQAL [T22Q], the protein stability index worked out at 2.78. The figure for EMVRFLLEAGADQEHKTDEMHIAL [T22I] is 1.93; for EMVRFLLEAGADQEHKTDEMHPAL [T22P] it is 2.86. EMVRFLLEAGADQEHKTDEMHHAL [T22H]: the protein stability index amounted to 2.39. As for EMVRFLLEAGADQEHKTDEMHEAL [T22E], the protein stability index came out at 3.42.

On to EMVRFLLEAGADQEHKTDEMHSAL [T22S], for which the protein stability index is 2.98. EMVRFLLEAGADQEHKTDEMHWAL [T22W]: the protein stability index worked out at 1.91. For the variant EMVRFLLEAGADQEHKTDEMHLAL [T22L], the protein stability index turned out to be 3.45.

EMVRFLLEAGADQEHKTDEMHKAL [T22K]: the protein stability index was 2.51. As to EMVRFLLEAGADQEHKTDEMHMAL [T22M], the protein stability index is 2.15.
